Test results reported in the supplement of paper PMC7125110.
± gives the standard error. This sample holds only a part of the variants without activity.

B1: glmS ribozyme (parent)
chain: AUAAAAGCGCCAGAACUACAGAAAUGUAGUUGACGAGGAGGAGGUUUAUCGAAUUUUCGGCGGAUGCCUCCAAA

Legend:
Conditions in all cases: with glucosamine-6-phosphate
glucosamine-6-phosphate [1] = variants of: B1; test: self-cleavage kobs at 40 uM GlcN6P; higher = faster cleavage; RNA array
Method in brief: (§1)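 Tracking of barcoded ribozyme variants used a hybridised Cy3 probe at 37 °C, after in situ transcription by E. coli RNA polymerase on sequenced MiSeq chips. The flowed solution held 40 μM to 10 mM glucosamine-6-phosphate in HEPES/KCl/Mg(OAc)2 buffer, and imaging ran over ~14 h. kobs was taken from exponential decay fits of normalised per-tile medians, and kcat and KM from weighted Michaelis–Menten fits.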

glucosamine-6-phosphate [2] = variants of: B1; test: self-cleavage kobs at 160 uM GlcN6P; higher = faster cleavage; RNA array
Method in brief: as §1

glucosamine-6-phosphate [3] = variants of: B1; test: self-cleavage kobs at 640 uM GlcN6P; higher = faster cleavage; RNA array
Method in brief: as §1

glucosamine-6-phosphate [4] = variants of: B1; test: self-cleavage kobs at 10000 uM GlcN6P; higher = faster cleavage; RNA array
Method in brief: as §1

glucosamine-6-phosphate [5] = variants of: B1; test: self-cleavage kobs at 2500 uM GlcN6P; higher = faster cleavage; RNA array
Method in brief: as §1

Variant	self-cleavage kobs at 40 uM GlcN6P (glucosamine-6-phosphate [1])	self-cleavage kobs at 160 uM GlcN6P (glucosamine-6-phosphate [2])	self-cleavage kobs at 640 uM GlcN6P (glucosamine-6-phosphate [3])	self-cleavage kobs at 10000 uM GlcN6P (glucosamine-6-phosphate [4])	self-cleavage kobs at 2500 uM GlcN6P (glucosamine-6-phosphate [5])
C8G A36G	< 1e-05 s⁻¹	< 1e-05 s⁻¹	< 1e-05 s⁻¹	< 1e-05 s⁻¹	–
C8G A36C	< 1e-05 s⁻¹	< 1e-05 s⁻¹	< 1e-05 s⁻¹	–	< 1e-05 s⁻¹
G29U G37C A39G U56A C61G	< 1e-05 s⁻¹	–	–	–	–
A39G G63U G66A	< 1e-05 s⁻¹	–	< 1e-05 s⁻¹	< 1e-05 s⁻¹	< 1e-05 s⁻¹
U30A A33U U56C	< 1e-05 s⁻¹	–	–	–	–
A15G G29A	0.000133 ± 3.8e-05 s⁻¹	0.000309 ± 8.6e-05 s⁻¹	0.00108 ± 0.00019 s⁻¹	0.0196 ± 0.0068 s⁻¹	0.00164 ± 0.00031 s⁻¹
C16A U31A G32U G40C G41A C67U C68U	< 1e-05 s⁻¹	–	–	< 1e-05 s⁻¹	–
G38C U65C	< 1e-05 s⁻¹	< 1e-05 s⁻¹	< 1e-05 s⁻¹	< 1e-05 s⁻¹	–
A14U U30C G44A U46G	< 1e-05 s⁻¹	–	< 1e-05 s⁻¹	< 1e-05 s⁻¹	< 1e-05 s⁻¹
A6U U55C C71A	< 1e-05 s⁻¹	–	–	–	–
G29C U45A C68G	< 1e-05 s⁻¹	–	–	< 1e-05 s⁻¹	–
A6U G7U A36G U49C C58G	< 1e-05 s⁻¹	–	< 1e-05 s⁻¹	< 1e-05 s⁻¹	< 1e-05 s⁻¹
G29C U49G C58A	< 1e-05 s⁻¹	–	–	–	–
G37U G40C A64U	< 1e-05 s⁻¹	–	–	< 1e-05 s⁻¹	–
C8U C11U U57G C67G	0.000617 ± 0.0003 s⁻¹	–	7.99e-05 ± 3.8e-05 s⁻¹	0.000608 ± 0.00023 s⁻¹	–
C10U G44A G51U	< 1e-05 s⁻¹	–	–	–	–
G59C U65A	< 1e-05 s⁻¹	< 1e-05 s⁻¹	< 1e-05 s⁻¹	< 1e-05 s⁻¹	–
A39G C68U	0.000529 ± 5e-05 s⁻¹	0.000783 ± 0.00025 s⁻¹	0.00223 ± 0.0005 s⁻¹	0.0156 ± 0.003 s⁻¹	0.00387 ± 0.0012 s⁻¹
G13U C34A U49A U65C	< 1e-05 s⁻¹	–	–	< 1e-05 s⁻¹	–
C8G A64C	< 1e-05 s⁻¹	< 1e-05 s⁻¹	–	< 1e-05 s⁻¹	< 1e-05 s⁻¹
G35C A36G G37A A39G U65A	< 1e-05 s⁻¹	–	–	< 1e-05 s⁻¹	–
A33U C67U C70G	< 1e-05 s⁻¹	–	–	–	–
C8G G37C	< 1e-05 s⁻¹	–	< 1e-05 s⁻¹	< 1e-05 s⁻¹	–
G9U G41U	< 1e-05 s⁻¹	< 1e-05 s⁻¹	< 1e-05 s⁻¹	< 1e-05 s⁻¹	< 1e-05 s⁻¹
A6G A39G C68A C70G	< 1e-05 s⁻¹	–	–	–	–

Variant	self-cleavage kobs at 40 uM GlcN6P (glucosamine-6-phosphate [1])	self-cleavage kobs at 160 uM GlcN6P (glucosamine-6-phosphate [2])	self-cleavage kobs at 640 uM GlcN6P (glucosamine-6-phosphate [3])	self-cleavage kobs at 10000 uM GlcN6P (glucosamine-6-phosphate [4])	self-cleavage kobs at 2500 uM GlcN6P (glucosamine-6-phosphate [5])
C50G C70A C71G	7.15e-05 ± 1.7e-05 s⁻¹	–	–	6.95e-05 ± 1.6e-05 s⁻¹	–
G38U C50A C67G	8.67e-05 ± 3.1e-05 s⁻¹	–	–	0.000115 ± 3.2e-05 s⁻¹	–
G35A G51A	< 1e-05 s⁻¹	–	–	< 1e-05 s⁻¹	–
A36U C70A	3.96e-05 ± 1e-05 s⁻¹	4.33e-05 ± 1.3e-05 s⁻¹	0.000143 ± 3.1e-05 s⁻¹	2.74e-05 ± 7.6e-06 s⁻¹	–
G40C G44A	< 1e-05 s⁻¹	< 1e-05 s⁻¹	< 1e-05 s⁻¹	–	< 1e-05 s⁻¹
G29U G60C C70A	< 1e-05 s⁻¹	–	–	–	–
A12U U30G G51C	< 1e-05 s⁻¹	–	< 1e-05 s⁻¹	–	< 1e-05 s⁻¹
A6U G35C U54A	< 1e-05 s⁻¹	–	–	–	–
G9U G32C A42U	< 1e-05 s⁻¹	–	< 1e-05 s⁻¹	< 1e-05 s⁻¹	–
G29A C61U G63A	< 1e-05 s⁻¹	–	–	–	–
U45G A64U	< 1e-05 s⁻¹	< 1e-05 s⁻¹	–	9.64e-05 ± 1.8e-05 s⁻¹	–
G43A A64G	< 1e-05 s⁻¹	< 1e-05 s⁻¹	–	4.35e-05 ± 1.7e-05 s⁻¹	–
A6U A12U G32U G60U	< 1e-05 s⁻¹	–	–	–	–
C50A G62U G63A	< 1e-05 s⁻¹	< 1e-05 s⁻¹	< 1e-05 s⁻¹	< 1e-05 s⁻¹	< 1e-05 s⁻¹
A6G U31C G41U A52U	< 1e-05 s⁻¹	–	–	< 1e-05 s⁻¹	–
U45A A48C C58U	< 1e-05 s⁻¹	–	–	< 1e-05 s⁻¹	–
G32U A52C U55G C61U	< 1e-05 s⁻¹	–	–	< 1e-05 s⁻¹	–
C8U G35U A39U G43U	< 1e-05 s⁻¹	–	< 1e-05 s⁻¹	–	–
A48G G51U	< 1e-05 s⁻¹	< 1e-05 s⁻¹	–	–	–
G35C C61U	< 1e-05 s⁻¹	< 1e-05 s⁻¹	< 1e-05 s⁻¹	< 1e-05 s⁻¹	< 1e-05 s⁻¹
G32A G37C A42U	< 1e-05 s⁻¹	–	–	–	–
G7A A53C	< 1e-05 s⁻¹	< 1e-05 s⁻¹	< 1e-05 s⁻¹	–	< 1e-05 s⁻¹
C8G G32U C34A	< 1e-05 s⁻¹	–	–	–	–
C34A G37U	< 1e-05 s⁻¹	< 1e-05 s⁻¹	–	–	< 1e-05 s⁻¹
